Measured values from paper PMC11291303.

Legend:
[1] = molecular target: turnip mosaic virus (TuMV) isolate YC5 VPg D113G (turnip mosaic virus isolate YC5); assay: two-hybrid
[2] = molecular target: turnip mosaic virus (TuMV) isolate YC5 VPg R118H (turnip mosaic virus isolate YC5); assay: two-hybrid

## ROS1-ASSOCIATED HOMEODOMAIN PROTEIN 1 (RHD1) (natural protein)
[1]
  percent decrease in binding affinity compared to VPg^wt: 22.6%
[2]
  percent increase in binding affinity compared to VPg^wt: 17.4%

## eukaryotic translation initiation factor (iso)4E (natural protein)
[1]
  percent weaker interaction than with VPg^wt: 90.5%
[2]
  percent weaker interaction than with VPg^wt: 90.5%

## MYOSIN 3 (MYOS3) protein (natural protein)
[2]
  percent stronger binding than VPg^wt: 27.5%

## PROLINE RICH MITOTIC CHECKPOINT CONTROL FACTOR (PRCC) (natural protein)
[2]
  percent stronger binding than VPg^wt: 22.5%

## ARM-REPEAT SU… PROTEIN (AT5G62580) (natural protein)
[1]
  percent reduction in binding strength compared to VPg^wt: 28.8%

## FRUCTOKINASE-LIKE 1 (FLN1) protein (natural protein)
[1]
  percent weaker interaction than with VPg^wt: 36.5%
[2]
  percent weaker interaction than with VPg^wt: 36.5%

## MITOCHONDRIAL GLYCOPROTEIN FAMILY PROTEIN (AT1G15870) (natural protein)
[2]
  percent stronger binding than VPg^wt: 36.2%

## PYRUVATE ORTHOPHOSPHATE DIKINASE (PPDK) REGULATORY PROTEIN 1 (RP1) (natural protein)
[2]
  percent stronger binding than VPg^wt: 47.1%
